Reference: patent publication US20240165282A1, “CONFORMATIONAL CONSTRAINED SOMATOSTATIN RECEPTOR 3 PEPTIDE LIGANDS AND THEIR CONJUGATES AND USES THEREOF” (STARGET PHARMA LTD., priority 2021, published 2024)
*1 amine or outer side, *2 acyl side, *3 side chain or, on linkers, in order; H or OH if unused. Bridges are numbered along the chain shown (N, C = ends). [ ]: non-standard residue; d: D form. The star is where a group is joined. DOTA = O=C(O)CN1CCN(CC(=O)O)CCN(CC(=O)*)CCN(CC(=O)O)CC1; N(2-mercaptoethyl)Gly = O=C(CN(CCS[*:3])[*:1])[*:2]

Columns and labels:
Assay in all cases: cell-based or functional assay
CHRM4 (human) = CHRM4 (human) (UniProt P08173)
Chain of CHRM4 (human) (P08173 whole entry): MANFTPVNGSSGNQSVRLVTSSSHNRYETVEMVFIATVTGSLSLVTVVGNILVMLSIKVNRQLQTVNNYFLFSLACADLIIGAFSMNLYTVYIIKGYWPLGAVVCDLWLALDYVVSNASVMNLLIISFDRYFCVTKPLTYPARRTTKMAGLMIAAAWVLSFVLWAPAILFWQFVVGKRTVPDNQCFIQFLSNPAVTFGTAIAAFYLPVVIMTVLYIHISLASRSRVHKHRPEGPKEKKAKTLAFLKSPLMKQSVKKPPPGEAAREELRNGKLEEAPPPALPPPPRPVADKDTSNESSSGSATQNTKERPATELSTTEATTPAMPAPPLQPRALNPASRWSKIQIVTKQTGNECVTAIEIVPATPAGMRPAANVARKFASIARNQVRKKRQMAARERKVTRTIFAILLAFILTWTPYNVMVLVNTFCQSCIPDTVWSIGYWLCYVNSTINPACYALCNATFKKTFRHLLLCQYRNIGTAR

EDG7 (human) = EDG7 (human) (UniProt Q9UBY5)
Chain of EDG7 (human) (Q9UBY5 whole entry): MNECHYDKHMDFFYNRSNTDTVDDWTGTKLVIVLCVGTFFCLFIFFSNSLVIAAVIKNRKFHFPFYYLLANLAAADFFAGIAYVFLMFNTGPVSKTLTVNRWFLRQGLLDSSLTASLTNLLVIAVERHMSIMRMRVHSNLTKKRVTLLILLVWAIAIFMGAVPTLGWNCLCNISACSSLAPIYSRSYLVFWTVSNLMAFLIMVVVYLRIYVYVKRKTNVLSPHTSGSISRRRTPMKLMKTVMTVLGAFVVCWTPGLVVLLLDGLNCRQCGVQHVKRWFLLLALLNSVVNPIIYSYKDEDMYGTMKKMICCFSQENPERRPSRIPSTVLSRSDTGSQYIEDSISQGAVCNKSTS

HRH1 (human) = HRH1 (human) (UniProt P35367)
Chain of HRH1 (human) (P35367 whole entry): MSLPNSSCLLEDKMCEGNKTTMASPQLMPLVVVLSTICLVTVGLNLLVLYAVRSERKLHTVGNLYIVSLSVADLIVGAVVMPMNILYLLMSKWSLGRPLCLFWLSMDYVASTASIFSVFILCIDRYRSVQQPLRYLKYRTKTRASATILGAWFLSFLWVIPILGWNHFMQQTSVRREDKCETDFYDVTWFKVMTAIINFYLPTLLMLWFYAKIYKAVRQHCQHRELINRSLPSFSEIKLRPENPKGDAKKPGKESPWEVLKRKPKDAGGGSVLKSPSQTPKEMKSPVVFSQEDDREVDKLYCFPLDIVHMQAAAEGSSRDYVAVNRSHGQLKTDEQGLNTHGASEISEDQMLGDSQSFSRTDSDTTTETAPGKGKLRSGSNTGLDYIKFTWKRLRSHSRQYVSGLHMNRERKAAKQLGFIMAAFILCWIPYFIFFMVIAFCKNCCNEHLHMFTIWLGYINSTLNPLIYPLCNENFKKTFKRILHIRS

OXER1 (human) = OXER1 (human) (UniProt Q8TDS5)
P2RY11 (human) = P2RY11 (human) (UniProt Q96G91)
MC5R (human) = MC5R (human) (UniProt P33032)
FFAR1 (human) = FFAR1 (human) (UniProt O14842)
Chain of FFAR1 (human) (O14842 whole entry): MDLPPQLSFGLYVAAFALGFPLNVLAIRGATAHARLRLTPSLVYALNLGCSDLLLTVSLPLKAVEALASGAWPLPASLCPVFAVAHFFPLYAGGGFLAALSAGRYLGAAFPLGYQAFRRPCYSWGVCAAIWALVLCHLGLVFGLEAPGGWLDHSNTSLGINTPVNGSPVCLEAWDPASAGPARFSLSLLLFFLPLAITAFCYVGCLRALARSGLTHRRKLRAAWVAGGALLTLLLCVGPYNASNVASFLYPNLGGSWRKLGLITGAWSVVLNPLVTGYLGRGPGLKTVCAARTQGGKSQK

PPYR1 (human) = PPYR1 (human) (UniProt P50391)
Chain of PPYR1 (human) (P50391 whole entry): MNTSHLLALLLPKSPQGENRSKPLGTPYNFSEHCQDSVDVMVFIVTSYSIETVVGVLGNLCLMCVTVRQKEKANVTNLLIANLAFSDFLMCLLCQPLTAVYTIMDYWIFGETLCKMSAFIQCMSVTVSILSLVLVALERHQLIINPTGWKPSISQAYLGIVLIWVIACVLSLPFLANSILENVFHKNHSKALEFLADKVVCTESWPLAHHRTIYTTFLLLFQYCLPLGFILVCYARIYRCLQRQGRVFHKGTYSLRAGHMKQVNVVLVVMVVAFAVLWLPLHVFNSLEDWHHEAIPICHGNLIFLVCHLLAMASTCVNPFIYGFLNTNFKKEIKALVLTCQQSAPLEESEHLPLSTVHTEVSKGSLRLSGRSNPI

EDNRB (human) = EDNRB (human) (UniProt P24530)
AVPR1B (human) = AVPR1B (human) (UniProt P47901)
TACR3 (human) = TACR3 (human) (UniProt P29371)
TACR1 (human) = TACR1 (human) (UniProt P25103)
DRD2S (human) = DRD2S (human) (UniProt P14416)
UTR2 (human) = UTR2 (human) (UniProt Q9UKP6)
Chain of UTR2 (human) (Q9UKP6 whole entry): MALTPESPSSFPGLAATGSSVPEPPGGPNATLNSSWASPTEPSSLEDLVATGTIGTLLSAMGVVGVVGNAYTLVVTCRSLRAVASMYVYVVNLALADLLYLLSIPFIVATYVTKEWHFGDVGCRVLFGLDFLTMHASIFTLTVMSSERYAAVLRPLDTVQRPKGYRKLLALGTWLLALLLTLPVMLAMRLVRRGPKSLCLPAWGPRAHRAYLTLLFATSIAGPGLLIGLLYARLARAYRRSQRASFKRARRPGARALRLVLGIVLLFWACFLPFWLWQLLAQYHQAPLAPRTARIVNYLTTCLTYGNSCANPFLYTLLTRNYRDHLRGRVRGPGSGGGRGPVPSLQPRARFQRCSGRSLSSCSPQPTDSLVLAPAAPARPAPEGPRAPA

P2RY1 (human) = P2RY1 (human) (UniProt P47900)
Chain of P2RY1 (human) (P47900 whole entry): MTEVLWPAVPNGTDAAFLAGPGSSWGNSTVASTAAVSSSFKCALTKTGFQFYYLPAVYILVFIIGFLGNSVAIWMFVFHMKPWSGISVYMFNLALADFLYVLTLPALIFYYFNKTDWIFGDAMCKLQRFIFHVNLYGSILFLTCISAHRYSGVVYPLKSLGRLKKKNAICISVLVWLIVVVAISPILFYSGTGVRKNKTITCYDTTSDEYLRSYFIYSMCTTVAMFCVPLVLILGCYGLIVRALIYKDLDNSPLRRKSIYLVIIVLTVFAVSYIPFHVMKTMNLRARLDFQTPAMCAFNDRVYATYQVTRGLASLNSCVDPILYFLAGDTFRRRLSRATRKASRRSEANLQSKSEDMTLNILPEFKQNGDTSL

F2RL1 (human) = F2RL1 (human) (UniProt P55085)
EDG6 (human) = EDG6 (human) (UniProt O95977)
DRD5 (human) = DRD5 (human) (UniProt P21918)
CHRM3 (human) = CHRM3 (human) (UniProt P20309)
NPY1R (human) = NPY1R (human) (UniProt P25929)
GIPR (human) = GIPR (human) (UniProt P48546)
DRD4 (human) = DRD4 (human) (UniProt P21917)
CMKLR1 (human) = CMKLR1 (human) (UniProt Q99788)
Chain of CMKLR1 (human) (Q99788 whole entry): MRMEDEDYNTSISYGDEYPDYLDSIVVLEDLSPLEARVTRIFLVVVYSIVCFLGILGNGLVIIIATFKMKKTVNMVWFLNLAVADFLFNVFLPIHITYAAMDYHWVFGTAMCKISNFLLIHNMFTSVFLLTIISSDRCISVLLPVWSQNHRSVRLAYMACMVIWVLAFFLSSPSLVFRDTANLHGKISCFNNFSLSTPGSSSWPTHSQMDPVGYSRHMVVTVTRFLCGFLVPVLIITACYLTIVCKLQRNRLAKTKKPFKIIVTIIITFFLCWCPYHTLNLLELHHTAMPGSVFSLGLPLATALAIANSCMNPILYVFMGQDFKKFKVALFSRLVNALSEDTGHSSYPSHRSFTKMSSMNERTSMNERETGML

PTGER3 (human) = PTGER3 (human) (UniProt P43115)
Chain of PTGER3 (human) (P43115 whole entry): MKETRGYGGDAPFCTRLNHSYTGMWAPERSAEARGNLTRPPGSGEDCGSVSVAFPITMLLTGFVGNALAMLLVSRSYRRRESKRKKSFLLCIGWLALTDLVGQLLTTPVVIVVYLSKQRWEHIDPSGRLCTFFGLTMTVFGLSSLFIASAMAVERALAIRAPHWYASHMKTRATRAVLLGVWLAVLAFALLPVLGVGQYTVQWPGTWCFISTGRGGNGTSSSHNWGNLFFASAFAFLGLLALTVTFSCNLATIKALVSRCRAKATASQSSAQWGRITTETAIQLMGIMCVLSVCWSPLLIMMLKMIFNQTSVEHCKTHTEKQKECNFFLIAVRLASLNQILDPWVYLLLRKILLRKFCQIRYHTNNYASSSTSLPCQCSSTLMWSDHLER

CNR1 (human) = CNR1 (human) (UniProt P21554)
CNR2 (human) = CNR2 (human) (UniProt P34972)
PTGFR (human) = PTGFR (human) (UniProt P43088)
CCR4 (human) = CCR4 (human) (UniProt P51679)
P2RY12 (human) = P2RY12 (human) (UniProt Q9H244)
GPR92 (human) = GPR92 (human) (UniProt Q9H1C0)
HTR1B (human) = HTR1B (human) (UniProt P28222)
DRD3 (human) = DRD3 (human) (UniProt P35462)
GPR35 (human) = GPR35 (human) (UniProt Q9HC97)
(CR)L-RAMP3 (human) = (CR)L-RAMP3 (human) (UniProt Q16602)
HRH4 (human) = HRH4 (human) (UniProt Q9H3N8)
NPFFR1 (human) = NPFFR1 (human) (UniProt Q9GZQ6)
AVPR1A (human) = AVPR1A (human) (UniProt P37288)
PTHR1 (human) = PTHR1 (human) (UniProt Q03431)
Chain of PTHR1 (human) (Q03431 27-593): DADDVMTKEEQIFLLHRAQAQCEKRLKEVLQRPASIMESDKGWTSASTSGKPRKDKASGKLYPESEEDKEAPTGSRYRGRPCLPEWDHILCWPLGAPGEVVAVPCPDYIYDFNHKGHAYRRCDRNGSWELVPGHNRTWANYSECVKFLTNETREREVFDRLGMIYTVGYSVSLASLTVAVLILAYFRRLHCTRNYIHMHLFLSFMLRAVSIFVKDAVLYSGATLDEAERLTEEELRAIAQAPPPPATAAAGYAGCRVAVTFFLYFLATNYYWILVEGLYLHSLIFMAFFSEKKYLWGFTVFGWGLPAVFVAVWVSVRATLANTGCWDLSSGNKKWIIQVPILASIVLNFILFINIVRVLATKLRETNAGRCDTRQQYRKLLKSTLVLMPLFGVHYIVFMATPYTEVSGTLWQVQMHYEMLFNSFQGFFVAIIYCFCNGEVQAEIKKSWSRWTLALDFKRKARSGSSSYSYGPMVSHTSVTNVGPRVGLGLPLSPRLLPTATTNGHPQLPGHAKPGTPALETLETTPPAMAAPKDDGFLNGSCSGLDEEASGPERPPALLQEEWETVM

MRGPRX1 (human) = MRGPRX1 (human) (UniProt Q96LB2)
EDG1 (human) = EDG1 (human) (UniProt P21453)
PTAFR (human) = PTAFR (human) (UniProt P25105)
CX3CR1 (human) = CX3CR1 (human) (UniProt P49238)
LTB4R (human) = LTB4R (human) (UniProt Q15722)
Chain of LTB4R (human) (Q15722 whole entry): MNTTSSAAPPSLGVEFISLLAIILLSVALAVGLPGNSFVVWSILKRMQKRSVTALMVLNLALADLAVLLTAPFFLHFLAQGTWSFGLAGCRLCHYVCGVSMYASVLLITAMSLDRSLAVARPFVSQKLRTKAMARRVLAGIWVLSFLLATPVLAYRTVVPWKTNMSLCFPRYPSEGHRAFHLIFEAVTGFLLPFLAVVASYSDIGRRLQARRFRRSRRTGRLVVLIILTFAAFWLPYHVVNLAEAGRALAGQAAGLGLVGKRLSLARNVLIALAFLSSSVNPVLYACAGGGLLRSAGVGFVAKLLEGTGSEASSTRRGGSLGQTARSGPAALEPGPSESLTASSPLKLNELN

NPSR1b (human) = NPSR1b (human) (UniProt Q6W5P4)
EDNRA (human) = EDNRA (human) (UniProt P25101)
PROKR2 (human) = PROKR2 (human) (UniProt Q8NFJ6)
BDKRB1 (human) = BDKRB1 (human) (UniProt P46663)
HTR5A (human) = HTR5A (human) (UniProt P47898)
HRH3 (human) = HRH3 (human) (UniProt Q9Y5N1)
GCGR (human) = GCGR (human) (UniProt P47871)
ADRA2C (human) = ADRA2C (human) (UniProt P18825)
CCKBR (human) = CCKBR (human) (UniProt P32239)
CCR6 (human) = CCR6 (human) (UniProt P51684)
BRS3 (human) = BRS3 (human) (UniProt P32247)
MLNR (human) = MLNR (human) (UniProt O43193)
[1] = molecular target: human cloned somatostatin receptor 2 (human) (UniProt P30874)
CXCR5 (human) = CXCR5 (human) (UniProt P32302)
CHRM5 (human) = CHRM5 (human) (UniProt P08912)
ADRB1 (human) = ADRB1 (human) (UniProt P08588)
Chain of ADRB1 (human) (P08588 whole entry): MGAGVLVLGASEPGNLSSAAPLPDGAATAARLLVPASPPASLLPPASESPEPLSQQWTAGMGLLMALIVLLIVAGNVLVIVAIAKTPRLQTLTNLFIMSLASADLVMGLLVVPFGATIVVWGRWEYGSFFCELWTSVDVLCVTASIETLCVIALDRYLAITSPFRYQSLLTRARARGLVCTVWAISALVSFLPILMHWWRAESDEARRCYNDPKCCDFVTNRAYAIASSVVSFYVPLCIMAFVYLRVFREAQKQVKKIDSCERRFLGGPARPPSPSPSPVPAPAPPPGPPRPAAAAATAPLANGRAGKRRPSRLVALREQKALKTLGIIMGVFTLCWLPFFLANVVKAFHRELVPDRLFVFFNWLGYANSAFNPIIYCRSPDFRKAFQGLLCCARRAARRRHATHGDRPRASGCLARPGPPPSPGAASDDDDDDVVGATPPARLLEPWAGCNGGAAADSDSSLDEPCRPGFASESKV

B1: SEQ ID NO: 4 (peptide)
peptide: {DOTA}-[dF]RCF[dW]KTF[N(2-mercaptoethyl)Gly]-NH2
modifications: disulfide 3-9; also: Ga complex of DOTA
% Activity (agonist mode, 1 µM) (CHRM4 (human)): -3%
% Activity (agonist mode, 1 µM) (EDG7 (human)): 0%
% Activity (agonist mode, 1 µM) (HRH1 (human)): -1%
% Activity (agonist mode, 1 µM) (OXER1 (human)): -2%
% Activity (agonist mode, 1 µM) (P2RY11 (human)): 0%
% Activity (agonist mode, 1 µM) (MC5R (human)): -5%
% Activity (agonist mode, 1 µM) (FFAR1 (human)): -4%
% Activity (agonist mode, 1 µM) (PPYR1 (human)): 1%
% Activity (agonist mode, 1 µM) (EDNRB (human)): 0%
% Activity (agonist mode, 1 µM) (AVPR1B (human)): 1%
% Activity (agonist mode, 1 µM) (TACR3 (human)): 1%
% Activity (agonist mode, 1 µM) (TACR1 (human)): 0%
% Activity (agonist mode, 1 µM) (DRD2S (human)): 0%
% Activity (agonist mode, 1 µM) (UTR2 (human)): 0%
% Activity (agonist mode, 1 µM) (P2RY1 (human)): -2%
% Activity (agonist mode, 1 µM) (F2RL1 (human)): -4%
% Activity (agonist mode, 1 µM) (EDG6 (human)): 10%
% Activity (agonist mode, 1 µM) (DRD5 (human)): -2%
% Activity (agonist mode, 1 µM) (CHRM3 (human)): 1%
% Activity (agonist mode, 1 µM) (NPY1R (human)): -5%
% Activity (agonist mode, 1 µM) (GIPR (human)): -2%
% Activity (agonist mode, 1 µM) (DRD4 (human)): 0%
% Activity (agonist mode, 1 µM) (CMKLR1 (human)): 0%
% Activity (agonist mode, 1 µM) (PTGER3 (human)): 1%
% Activity (agonist mode, 1 µM) (CNR1 (human)): -1%
% Activity (agonist mode, 1 µM) (CNR2 (human)): 2%
% Activity (agonist mode, 1 µM) (PTGFR (human)): 0%
% Activity (agonist mode, 1 µM) (CCR4 (human)): 0%
% Activity (agonist mode, 1 µM) (P2RY12 (human)): 1%
% Activity (agonist mode, 1 µM) (GPR92 (human)): 1%
% Activity (agonist mode, 1 µM) (HTR1B (human)): -1%
% Activity (agonist mode, 1 µM) (DRD3 (human)): 9%
% Activity (agonist mode, 1 µM) (GPR35 (human)): 1%
% Activity (agonist mode, 1 µM) ((CR)L-RAMP3 (human)): 0%
% Activity (agonist mode, 1 µM) (HRH4 (human)): -2%
% Activity (agonist mode, 1 µM) (NPFFR1 (human)): -2%
% Activity (agonist mode, 1 µM) (AVPR1A (human)): 0%
% Activity (agonist mode, 1 µM) (PTHR1 (human)): 0%
% Activity (agonist mode, 1 µM) (MRGPRX1 (human)): 0%
% Activity (agonist mode, 1 µM) (EDG1 (human)): 0%
% Activity (agonist mode, 1 µM) (PTAFR (human)): -2%
% Activity (agonist mode, 1 µM) (CX3CR1 (human)): 0%
% Activity (agonist mode, 1 µM) (LTB4R (human)): -1%
% Activity (agonist mode, 1 µM) (NPSR1b (human)): -1%
% Activity (agonist mode, 1 µM) (EDNRA (human)): -1%
% Activity (agonist mode, 1 µM) (PROKR2 (human)): 2%
% Activity (agonist mode, 1 µM) (BDKRB1 (human)): -5%
% Activity (agonist mode, 1 µM) (HTR5A (human)): 0%
% Activity (agonist mode, 1 µM) (HRH3 (human)): -2%
% Activity (agonist mode, 1 µM) (GCGR (human)): -2%
% Activity (agonist mode, 1 µM) (ADRA2C (human)): -8%
% Activity (agonist mode, 1 µM) (CCKBR (human)): 2%
% Activity (agonist mode, 1 µM) (CCR6 (human)): 0%
% Activity (agonist mode, 1 µM) (BRS3 (human)): 1%
% Activity (agonist mode, 1 µM) (MLNR (human)): 1%
% Activity (agonist mode, 1 µM) [1]: 9%
% Activity (agonist mode, 1 µM) (CXCR5 (human)): 0%
% Activity (agonist mode, 1 µM) (CHRM5 (human)): 5%
% Activity (agonist mode, 1 µM) (ADRB1 (human)): 1%
